The target of one data set is T1, human PGE synthase (Homo sapiens, UniProt O14684).
T1 construct: made in house; host or cells: E. coli BL21 (DE3) pLysSL, vector pSP19T7LT; membrane fraction
T1 sequence (O14684 1-152): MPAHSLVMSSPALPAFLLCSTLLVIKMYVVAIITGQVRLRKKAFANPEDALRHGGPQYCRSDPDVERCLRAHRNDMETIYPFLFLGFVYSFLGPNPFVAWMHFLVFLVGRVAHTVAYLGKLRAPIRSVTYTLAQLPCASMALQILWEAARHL
The data set is described as follows: PGE synthase enzyme assay (inhibition of PGE2 formation from PGH2). It is filed as biochemical. To be noted: 1 mM for 5 min prior to incubation; membrane fraction from bacteria expressing PGE synthase. As for the experimental part:
(§1) The protein sample was diluted in potassium inorganic phosphate buffer (0.1 M, pH=7.4) containing 2.5 mM reduced glutathione. The reaction (total volume=100 μl) was started by the addition of 10 μM PGH2 with or without 0.1 μCi 3H PGH2 and terminated with 60 μl acetonitrile/HCl, lowering the pH to 3.2. In order to determine the formation of either PGF2α, PGE2 or PGD2, an aliquot (60 μl) was analyzed by reverse-phase-HPLC combined with UV detection (195 nm) and/or radioactivity detection using an online β-RAM detector (Inus System, Inc.). The reverse-phase HPLC column was Nova-Pak C18 (3.9×150 mm, 4 μm particle size) obtained from Waters. The mobile phase was water, acetonitrile and trifluoroacetic acid (70:30:0.007, by vol) with a flow rate of 1 ml/min.
(§2) For analysis of 12-HHT, a mobile phase of methanol, water and acetic acid (70:30:0,01, by vol) was used and UV detection at 236 nm. The amounts of produced PGE2 and 12-HHT were quantified by integration of the areas under the eluted peaks at 195 and 236 nm, respectively.
(§3) The membrane fraction (0.02 mg total protein/ml) isolated from bacteria expressing PGE synthase was incubated for 2 min in the presence of PGH2 (10 μM including 1 μCi 3H PGH2) and reduced glutathione (2.5 mM).

For another data set, the system named is PGH2. The data set is described as follows: PGE synthase activity of fractions from cells expressing recombinant protein (PGH2 to PGE2, RP-HPLC). To be noted: for PGE synthase activity: membrane fraction or microsomes of cells expressing the control protein. It is filed as biochemical. As for the experimental part:
as §1, §2, §3
In this experiment the various dilutions of the membrane fraction obtained from bacteria expressing PGE synthase were incubated in the presence of PGH2 (10 μM) and GSH (2.5 mM) for 2 min. The PGE2 formation was analyzed and quantified by RP-HPLC and UV detection at 195 nm as described in Materials and Methods above.
The membrane fraction obtained from bacteria expressing PGE synthase (0.02 mg/ml) was incubated with PGH2 for the indicated times in the presence (filled circles) or absence (open circles) of glutathione. Filled triangles represent non-enzymatic (buffer only) PGE2 formation after incubation with PGH2. The product formation was analyzed by RP-HPLC and PGE2 was detected and quantified using UV absorbance at 195 nm.

The test system of data set [1] is 17.5 kDa protein from sheep seminal vesicles (PGE synthase activity). To be noted: read-out: Km for PGH2; cited from earlier work.
The test system of data set [2] is 180 kDa protein from sheep seminal vesicles (PGE synthase activity). The settings on record: larger (180 kDa) protein; read-out: Km for PGH2; cited from earlier work.
The test system of data set [3] is PGE synthase expression in A549 cells. The data set is described as follows: Induction of PGE synthase protein in A549 cells, Western blot. It is filed as cell-based, human. The settings on record: 1 ng/ml, 24 h. Here is the method:
Samples were diluted and boiled for two min in SDS-containing sample buffer (Laemmli, U. K. (1970) Nature 227, 680–5). Proteins were separated through 14% polyacrylamide gels (Novex) and electroblotted (Towbin, H., et al.(1979) PNAS USA 76, 4350–4) onto PVDF (Pall) membranes. Transfer efficiency was visualized using pre-stained standards (Novex). Membranes were then soaked for 1 h at 25° C. in Tris-buffered saline (100 mM Tris-HCl, pH=7.5, 150 mM NaCl) containing 0.1% (v/v) Tween and 5% (w/v) non-fat dried milk. The membrane was subsequently washed twice in 0.1% T-TBS followed by 1 h incubation at 25° C. with the indicated antiserum (1:2000 dilution) in 0.05% (v/v) T-TBS and 2% (w/v) non-fat dried milk. […]
In order to investigate whether or not PGE synthase may also be regulated by this cytokine, A549 cells were cultured for 24 h in the presence of 1 ng/ml IL-1β. Normal cells as well as cells treated with IL-1β were subsequently analyzed for PGE synthase expression by SDS-PAGE followed by Western blotting.
Total protein corresponding to 0.2×10^6 cells grown for 24 h in the presence (1 ng/ml) or absence of IL-1β was fractionated by SDS-PAGE and transferred to PVDF membrane. […] Also analyzed was the commercial available, partly purified, PGE synthase from sheep seminal vesicles (6 μg) as well as the membrane fraction from bacteria expressing human PGE synthase (5 μg).
Background: In western blotting, separated proteins are transferred to a membrane and probed.

The source of these data is patent US7192733B2, “Methods and means for modulating PGE synthase activity” (Karolinska Innovations AB, priority 1998, dated 2007).

In general, Km refers to the substrate concentration at which the rate is half of its maximum.

Regarding `CCN1C(=O)C=CC1=O` [N-ethylmaleimide], the “enzyme activity after treatment of the membrane fraction” value on human PGE synthase is reported as “abolished”.

On to “MGST2: microsomal glutathione S-transferase 2 expressed in Sf9 cells, microsomes [reference compound]”, for which the “PGE synthase activity” value with PGH2 is recorded as “no PGE synthase activity”.

On to `CCCCC[C@H](O)/C=C/[C@@H]1[C@@H](C/C=C\CCCC(=O)O)[C@@H]2C[C@H]1OO2` (relative stereo) [PGH2, 15(S)-hydroxy-9α, 11α-peroxidoprosta-5-cis-13-trans-dienoic acid], for which the values for the Km in data set [1] and in data set [2] were 40 µM and 150 µM, respectively.

In the case of “IL-1β: proinflammatory cytokine interleukin-1β”, in data set [3], the “PGE synthase protein expression” value is on record as “induced”.

B1: ratMGST1: rat microsomal glutathione S-transferase 1 expressed in bacteria, control membrane fraction (protein, UniProt P08011 2-155, looked up)
Microsomal glutathione …: ADLKQLMDNEVLMAFTSYATIILAKMMFLSSATAFQRLTNKVFANPEDCAGFGKGENAKKFLRTDEKVERVRRAHLNDLENIVPFLGIGLLYSLSGPDLSTALIHFRIFVGARIYHTIAYLTPLPQPNRGLAFFVGYGVTLSMAYRLLRSRLYL
With B1, the “PGE synthase activity” value in the data set on PGH2 is “no PGE synthase activity”.

B2: PGE synthase: human PGE synthase (SEQ ID NO: 2) expressed in E. coli, tested as bacterial membrane fraction (protein, listed as Homo sapiens)
chain: MPAHSLVMSSPALPAFLLCSTLLVIKMYVVAIITGQVRLRKKAFANPEDALRHGGPQYCRSDPDVERCLRAHRNDMETIYPFLFLGFVYSFLGPNPFVAWMHFLVFLVGRVAHTVAYLGKLRAPIRSVTYTLAQLPCASMALQILWEAARHL
In the case of B2, the “glutathione dependent PGE synthase activity” value in the data set with PGH2 (bacterial membrane fraction, PGH2, reduced glutathione) worked out at 0.25 µmol/min/mg. The deduced specific activity in the data set on PGH2 (estimating that 1% of the bacterial membrane protein is MGST1-L1) was 25 µmol/min/mg. The “specific activity under linear conditions (subtracting background formation)” value in the data set with PGH2 (membrane fraction 0.02 mg/ml, PGH2 10 μM, GSH 2.5 mM) came to 250 nmol/min/mg.
